Assay results taken from patent US20200317808A1 (AbbVie / Abbott, published 2020).

Key:
[1] = biological target: T1, cynomolgus PD-1 Fc fusion (cynomolgus monkey, UniProt B0LAJ3 25-170); assay: ELISA on plate bound cynomolgus PD-1 Fc fusion
T1 construct: also called Cyno PD-1 (ELISA)

[2] = biological target: T2, human PD-1 expressed on cells (human, UniProt Q15116 25-288); assay: cell-based or functional assay
human PD-1 Fc fusion = biological target: T3, human PD-1 Fc fusion (human, UniProt Q15116 25-170); assay: ELISA on plate bound human PD-1 Fc fusion
T3 construct: also called Hu PD-1 (ELISA); not shown: Fc part of the fusion

[3] = biological target: T2, human PD-1 expressed on cells; assay: flow cytometry on PD-1 expressing Jurkat cells
[4] = biological target: T2, human PD-1 expressed on cells; assay: flow cytometry on activated human CD4+ T cells
Protocol: Cells were analyzed using Becton Dickinson FACSCanto flow cytometer. Data was analyzed using BD FACSDiva software (version 8.0.1).

[5] = biological target: T4, Recombinant extracellular domain of human PD-1 (residues 1-167) (human, UniProt Q15116 25-167); assay: SPR, Biacore T200, antibody captured by anti-human Fc, PD-1 ECD as analyte
T4 construct: Bought from a commercial source; also called recombinant soluble PD-1 ECD; PD-1 ECD
Excerpt: Unreacted moieties on the biosensor surface were blocked with ethanolamine.

[6] = biological target: T2, human PD-1 expressed on cells; assay: flow cytometry on PD-1 expressing Jurkat cells; samples incubated 30 days at -80, 5, 25 or 40°C
Protocol: (§1) PD-1 expressing Jurkat cells were harvested from flasks and resuspended to 2×10⁶ cells/mL in PBS containing 1% BSA. 100 μL of cells were added to a round bottom 96 well plate containing 100 μL of titrated test antibody or isotype control. Cells were incubated with antibodies at room temperature for 25 minutes and then washed twice with PBS containing 1% BSA. The cell pellet was resuspended in 100 μL of a 1:250 diluted secondary antibody goat anti-human Fab PE. Following 25 minutes incubation at RT, cells were washed twice with PBS containing 1% BSA and resuspended in 200 μL of 1% BSA. Cells were analyzed using Becton Dickinson FACSCanto flow cytometer. Data was analyzed using BD FACSDiva software (version 8.0.1).

[7] = biological target: T2, human PD-1 expressed on cells; assay: flow cytometry on PD-1 expressing Jurkat cells; samples stored 30 days at the given temperature or oxidised with 1% hydrogen peroxide or 1% tert-butyl hydroperoxide
Protocol: as §1
(§2) The antibody variants were screened for binding to human PD-1 transfected Jurkat cells and EC₅₀ values were determined (FIG. 3B).

[8] = biological target: T2, human PD-1 expressed on cells; assay: flow cytometry on human PD-1 transfected Jurkat cells
Protocol: as §1, §2

T2 sequence (Q15116 25-288 limits assumed): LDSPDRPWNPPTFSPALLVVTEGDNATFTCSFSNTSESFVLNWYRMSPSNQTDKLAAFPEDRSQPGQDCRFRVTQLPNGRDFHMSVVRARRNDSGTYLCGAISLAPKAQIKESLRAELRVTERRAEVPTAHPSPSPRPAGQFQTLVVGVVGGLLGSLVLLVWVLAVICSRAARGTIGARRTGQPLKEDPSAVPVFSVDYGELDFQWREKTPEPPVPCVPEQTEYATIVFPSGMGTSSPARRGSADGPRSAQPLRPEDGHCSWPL
T1 sequence (B0LAJ3 entry or part of it limits assumed): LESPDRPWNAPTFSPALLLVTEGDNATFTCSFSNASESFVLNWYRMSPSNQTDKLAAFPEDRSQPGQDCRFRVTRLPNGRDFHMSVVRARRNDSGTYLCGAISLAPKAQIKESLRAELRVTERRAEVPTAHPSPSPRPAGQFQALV
T4 sequence (Q15116 25-167): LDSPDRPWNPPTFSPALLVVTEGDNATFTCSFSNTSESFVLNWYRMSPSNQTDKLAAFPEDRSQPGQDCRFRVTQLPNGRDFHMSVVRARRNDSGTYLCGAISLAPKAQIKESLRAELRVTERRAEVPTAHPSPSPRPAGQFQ
T3 sequence (Q15116 25-170 limits assumed): as the sequence (B0LAJ3 entry or part of it limits assumed) above, with E2D, A10P, L19V, A35T, R75Q, A144T counted along it

Nivolumab (antibody) was tested, and the EC50 [1] was 0.07 nM.

B1: Humanized 12A11.2b with M99L in CDR-H3 (antibody, V domains shown)
VH: EIQLVQSGAEVKKPGSSVKVSCKASGYTFTHYGMNWVRQAPGQGLEWVGWVNTYTGEPTYADDFKGRLTFTLDTSTSTAYMELSSLRSEDTAVYYCTREGEGLGFGDWGQGTTVTVSS
VL: DVVMTQSPLSLPVTPGEPASISCRSSQSIVHSHGDTYLEWYLQKPGQSPQLLIYKVSNRFSGVPDRFSGSGSGTDFTLKISRVEAEDVGVYYCFQGSHIPVTFGQGTKLEIK
notes: It was detected with anti-human Fab and captured with anti-human IgG Fc; also called Hu12A11.2b4; humanized antibody 12A11.2b M99L
In the case of B1, the “Jurkat NFAT EC50” value [2] is reported as 4.5 µg/mL, the EC50 (human PD-1 Fc fusion) is reported as 0.197 nM and the EC50 [1] is reported as 0.102 nM. For the same molecule, the EC50 [3] was 0.045 nM, the EC50 [4] was 0.18 nM and the Kd [5] was 2.1 nM. For the same molecule, the “EC50 (read off the curve)” value [6] was about 0.01 µg/mL.

B2: Humanized 12A11.2b with mouse CDRs (antibody, V domains shown)
VH: EIQLVQSGAEVKKPGSSVKVSCKASGYTFTHYGMNWVRQAPGQGLEWVGWVNTYTGEPTYADDFKGRLTFTLDTSTSTAYMELSSLRSEDTAVYYCTREGEGMGFGDWGQGTTVTVSS
VL: DVVMTQSPLSLPVTPGEPASISCRSSQSIVHSHGDTYLEWYLQKPGQSPQLLIYKVSNRFSGVPDRFSGSGSGTDFTLKISRVEAEDVGVYYCFQGSHIPVTFGQGTKLEIK
notes: also called Hu12A11.2b1; M99 parent antibody
B2: binds [7].

B3: Humanized 12A11.2b with M99I in CDR-H3 (antibody, V domains shown)
VH: EIQLVQSGAEVKKPGSSVKVSCKASGYTFTHYGMNWVRQAPGQGLEWVGWVNTYTGEPTYADDFKGRLTFTLDTSTSTAYMELSSLRSEDTAVYYCTREGEGIGFGDWGQGTTVTVSS
VL: DVVMTQSPLSLPVTPGEPASISCRSSQSIVHSHGDTYLEWYLQKPGQSPQLLIYKVSNRFSGVPDRFSGSGSGTDFTLKISRVEAEDVGVYYCFQGSHIPVTFGQGTKLEIK
notes: also called Hu12A11.2b2; M99I variant
B3: binds [8].

B4: Humanized 12A11.2b with M99V in CDR-H3 (antibody, V domains shown)
VH: EIQLVQSGAEVKKPGSSVKVSCKASGYTFTHYGMNWVRQAPGQGLEWVGWVNTYTGEPTYADDFKGRLTFTLDTSTSTAYMELSSLRSEDTAVYYCTREGEGVGFGDWGQGTTVTVSS
VL: DVVMTQSPLSLPVTPGEPASISCRSSQSIVHSHGDTYLEWYLQKPGQSPQLLIYKVSNRFSGVPDRFSGSGSGTDFTLKISRVEAEDVGVYYCFQGSHIPVTFGQGTKLEIK
notes: also called Hu12A11.2b3; M99V variant
B4: binds [8].
